Experimental data from article PMC4537050, “A long pentraxin-3-derived pentapeptide for the therapy of FGF8b-driven steroid hormone-regulated cancers” (Oncotarget, 2015).

What was measured:
[1] = target: Human recombinant FGF8b (fibroblast growth factor-8b) (human)
[2] = target: Human recombinant FGF8b (fibroblast growth factor-8b) (human); experiment: SPR; BIAcore X-100; FGF8b (20 μg/ml in 10 mM sodium acetate, pH 6.0) or other FGFs (10 mM sodium acetate at optimal pH) immobilised on a CM5 sensor chip by EDC/NHS; peptide injected (ARPCA 8 μM to 2000 μM), 4 min at 30 μl/min, 10 min dissociation, in HBS; equilibrium values fitted with the Langmuir equation for monovalent binding
[3] = target: FGF1 (UniProt P05230); experiment: as above
[4] = target: FGF2 (UniProt P09038); experiment: as above

Kd [2]: 278 µM
Kd [3]: 227 µM
Kd [4]: 1700 µM
Binder: Ac-ARPCA-NH2 [Ac-ARPCA-NH2, acetylated pentapeptide corresponding to PTX3(100-104)]
inhibition of HUVEC proliferation in response to 30 ng/ml FGF8b (viable cell counts at 48 h) [1]: 30 µM
